T1: α-2 macroglobulin (Homo sapiens, UniProt P01023)
T1 sequence (P01023 24-1474): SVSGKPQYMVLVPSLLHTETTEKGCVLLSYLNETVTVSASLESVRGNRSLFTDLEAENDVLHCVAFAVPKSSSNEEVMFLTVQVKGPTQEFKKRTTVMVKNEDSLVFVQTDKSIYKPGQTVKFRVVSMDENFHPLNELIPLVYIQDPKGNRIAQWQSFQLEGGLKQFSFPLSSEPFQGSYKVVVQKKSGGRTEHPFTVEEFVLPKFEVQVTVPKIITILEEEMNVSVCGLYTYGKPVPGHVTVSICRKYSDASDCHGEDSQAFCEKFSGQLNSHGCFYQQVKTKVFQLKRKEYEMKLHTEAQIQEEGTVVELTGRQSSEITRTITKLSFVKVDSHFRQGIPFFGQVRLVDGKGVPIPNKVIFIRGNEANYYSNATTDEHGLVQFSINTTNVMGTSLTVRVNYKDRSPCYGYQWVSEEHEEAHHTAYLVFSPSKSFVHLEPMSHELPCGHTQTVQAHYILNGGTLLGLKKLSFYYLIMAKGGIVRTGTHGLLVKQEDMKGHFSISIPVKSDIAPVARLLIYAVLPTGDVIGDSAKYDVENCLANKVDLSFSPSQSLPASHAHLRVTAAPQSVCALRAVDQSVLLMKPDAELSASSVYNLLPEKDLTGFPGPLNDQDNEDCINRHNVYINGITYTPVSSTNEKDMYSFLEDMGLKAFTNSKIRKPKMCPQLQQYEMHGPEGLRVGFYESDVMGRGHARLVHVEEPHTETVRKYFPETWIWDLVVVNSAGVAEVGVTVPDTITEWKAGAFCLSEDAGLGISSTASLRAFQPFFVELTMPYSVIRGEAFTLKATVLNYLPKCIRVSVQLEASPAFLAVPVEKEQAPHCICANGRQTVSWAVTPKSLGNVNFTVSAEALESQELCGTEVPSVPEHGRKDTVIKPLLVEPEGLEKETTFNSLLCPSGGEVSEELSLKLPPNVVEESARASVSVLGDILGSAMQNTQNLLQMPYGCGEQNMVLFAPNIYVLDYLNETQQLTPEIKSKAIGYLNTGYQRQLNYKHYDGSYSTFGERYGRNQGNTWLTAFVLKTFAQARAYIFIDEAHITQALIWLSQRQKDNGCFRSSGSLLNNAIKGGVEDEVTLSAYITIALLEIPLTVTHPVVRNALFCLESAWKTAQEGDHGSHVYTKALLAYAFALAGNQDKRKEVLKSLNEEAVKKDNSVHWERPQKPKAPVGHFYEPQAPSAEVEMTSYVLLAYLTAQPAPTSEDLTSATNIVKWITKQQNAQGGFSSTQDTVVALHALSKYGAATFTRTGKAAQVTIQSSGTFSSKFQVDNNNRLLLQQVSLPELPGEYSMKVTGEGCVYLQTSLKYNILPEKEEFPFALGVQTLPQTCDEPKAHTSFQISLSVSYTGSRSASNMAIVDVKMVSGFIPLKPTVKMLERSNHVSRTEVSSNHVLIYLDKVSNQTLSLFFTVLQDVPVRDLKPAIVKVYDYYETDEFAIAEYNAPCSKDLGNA

B1: ADAMTS-4: Recombinant ADAMTS-4 used for comparison, spontaneously truncated and lacking the spacer domain (protein)
chain: FASLSRFVETLVVADDKMAAFHGAGLKRYLLTVMAAAAKAFKHPSIRNPVSLVVTRLVILGSGEEGPQVGPSAAQTLRSFCAWQRGLNTPEDSDPDHFDTAILFTRQDLCGVSTCDTLGMADVGTVCDPARSCAIVEDDGLQSAFTAAHELGHVFNMLHDNSKPCISLNGPLSTSRHVMAPVMAHVDPEEPWSPCSARFITDFLDNGYGHCLLDKPEAPLHLPVTFPGKDYDADRQCQLTFGPDSRHCPQLPPPCAALWCSGHLNGHAMCQTKHSPWADGTPCGPAQACMGGRCLHMDQLQDFNIPQAGGWGPWGPWGDCSRTCGGGVQFSSRDCTRPVPRNGGKYCEGRRTRFRSCNTEDCPTGSALTFREEQCAAYNHRTDLFKSFPGPMDWVPRYTGVAPQDQCKLTCQAQALGYYYVLEPRVVDGTPCSPDSSSVCVQGRCIHAGCDRIIGSKKKFDKCMVCGGDGSGCSKQSGSFRK
B2: ADAMTS-8: Recombinant human full-length ADAMTS-8 with carboxy-terminal Strep-tag expressed in CHO cells; elution fraction holds pro- and mature forms (protein)
chain: RFVSEARFVETLLVADASMAAFYGADLQNHILTLMSVAARIYKHPSIKNSINLMVVKVLIVEDEKWGPEVSDNGGLTLRNFCNWQRRFNQPSDRHPEHYDTAILLTRQNFCGQEGLCDTLGVADIGTICDPNKSCSVIEDEGLQAAHTLAHELGHVLSMPHDDSKPCTRLFGPMGKHHVMAPLFVHLNQTLPWSPCSAMYLTELLDGGHGDCLLDAPRAALPLPTGLPGRMALYQLDQQCRQIFGPDFRHCPNTSAQDVCAQLWCHTDGAEPLCHTKNGSLPWADGTPCGPGHLCSEGSCLPEEEVERPKPVADGGWAPWGPWGECSRTCGGGVQFSHRECKDPEPQNGGRYCLGRRAKYQSCHTEECPPDGKSFREQQCEKYNAYNYTDMDGNLLQWVPKYAGVSPRDRCKLFCRARGRSEFKVFEAKVIDGTLCGPETLAICVRGQCVKAGCDHVVDSPRKLDKCGVCGGKGNSCRKVSGSLTPTNYGYNDIVTIPAGATNIDVKQRSHPGVQNDGNYLALKTADGQYLLNGNLAISAIEQDILVKGTILKYSGSIATLERLQSFRPLPEPLTVQLLTVPGEVFPPKVKYTFFVPNDVDFSMQSSKERATTNIIQPLLHAQWVLGDWSECSSTCGAGWQRRTVECRDPSGQASATCNKALKPEDAKPCESQLCPLGSGSAWSHPQFEK
B3: C-terminally truncated ADAMTS-8: Recombinant ADAMTS-8 in which the C-terminal thrombospondin and spacer domains were deleted (protein)
chain: MLPAPAAPRWPPLLLLLLLLLLPLARGAPARPAAGGQASELVVPTRLPGSAGELALHLSAFGKGFVLRLAPDDSFLAPEFKIERLGGSGRATGGERGLRGCFFSGTVNGEPESLAAVSLCRGLSGSFLLDGEEFTIQPQGAGGSLAQPHRLQRWGPAGARPLPRGPEWEVETGEGQRQERGDHQEDSEEESQEEEAEGASEPPPPLGATSRTKRFVSEARFVETLLVADASMAAFYGADLQNHILTLMSVAARIYKHPSIKNSINLMVVKVLIVEDEKWGPEVSDNGGLTLRNFCNWQRRFNQPSDRHPEHYDTAILLTRQNFCGQEGLCDTLGVADIGTICDPNKSCSVIEDEGLQAAHTLAHELGHVLSMPHDDSKPCTRLFGPMGKHHVMAPLFVHLNQTLPWSPCSAMYLTELLDGGHGDCLLDAPRAALPLPTGLPGRMALYQLDQQCRQIFGPDFRHCPNTSAQDVCAQLWCHTDGAEPLCHTKNGSLPWADGTPCGPGHLCSEGSCLPEEEVERPKPVADGGWAPWGPWGECSRTCGGGVQFSHRECKDPEPQNGGRYCLGRRAKYQSCHTEECPPDGKSFREQQCEKYNAYNYTDMDGNLLQWVPKYAGVSPRDRCKLFCRARGRSEFKVFEAKVIDGTLCGPETLAICVRGQCVKAGCDHVVDSPRKLDKCGVCGGKGNSCRKVSGSLTPTNYGYNDIVTIPAGATNIDVKQRSHPGVQNDGNYLALKTADGQYLLNGNLAISAIEQDILVKGTILKYSGSIATLERLQSFRPLPEPLTVQLLTVPGEVFPPKVKYTFFVPNDVDFSMQSSKERATTNIIQPLLHAQWVLGDWSECSSTCGAGWQRRTVECRDPSGQASATCNKALKPEDAKPCESQLCPL

Tests used:
Format in all cases: biochemical
bovine aggrecan = bovine aggrecan (Bos taurus, UniProt P13608); assay: Competitive inhibition ELISA for aggrecanase activity (MAb AGG-C1); settings: bovine aggrecan digested 16 h at 37° C.; for amount of enzyme required to generate 45% inhibition in the competitive inhibition ELISA: then MAb AGG-C1 added
Procedure: Streptavidin-coated microtiter plates (Pierce, Rockford, Ill.) were coated with N-terminally biotinylated peptide aggc1 (b-aggc1) by incubating each well with 100 μl of b-aggc1 (100 ng/ml) for 1 h at room temperature. After washing 4 times with phosphate-buffered saline containing 0.01% Tween-20 (PBS-Tween), wells were blocked for 1 h at room temperature with 100 μl of PBS-Tween containing 2% BSA, followed by 4 washes with PBS-Tween.
In order to validate the neoepitope nature of MAb AGG-C1, competition mixtures (100 μl) comprised of MAb AGG-C1 (0.04 μg/ml) and 1.0-1000 nmol/ml of the synthetic peptides GGLPLPRNITEGE (SEQ ID NO:22), GGLPLPRNITEGE ARGSVILTVK-CONH2 (SEQ ID NO:23), undigested aggrecan, or ADAMTS-4 digested aggrecan were preincubated for 1 h at room temperature. Mixtures were then transferred to b-aggc1 coated wells. After a further incubation for 1 h at room temperature, the plates were washed 4 times with PBS-Tween then incubated for 1 h at room temperature with 100 μl of peroxidase-conjugated secondary goat anti-mouse IgG (1:10,000). Following 4 final washes with PBS-Tween, the wells were incubated with TMB 1 component microwell peroxidase substrate (BioFX Laboratories, Owings Mills, Md.). Color development was terminated by the addition of 0.18 M H2SO4, and the absorbance was monitored spectrophotometrically at 450 nm.
For the generation of a standard curve, bovine aggrecan (25 μg in 50 μl) was digested with ADAMTS-4 (0.001 ng-5 ng) for 16 h at 37° C. MAb AGG-C1 was then added to each digest (final antibody concentration of 0.04 μg/ml) and these mixtures were preincubated for 1 h at room temperature, followed by transfer to b-aggc1 coated plates and completion of the ELISA.
The standard curve was generated by incubating bovine aggrecan with increasing amounts of recombinant ADAMTS-4 for 16 h at 37° C. followed by addition of MAb AGG-C1 to each digest. Similar assays were performed to estimate the relative aggrecanase activity of ADAMTS-8.

α-2 macroglobulin = target: T1, α-2 macroglobulin; assay: α2-macroglobulin assay of proteolytic activity; settings: purified recombinant protein
[1] = target: T2, Bovine articular cartilage aggrecan (Glu373-Ala374 bond) (Bos taurus, UniProt P13608); assay: Western blotting of enzyme-digested aggrecan with neoepitope antibodies (MAb BC-3, MAb AGG-C1, MAb BC-14)
T2 construct: Bovine articular cartilage aggrecan was incubated with purified ADAMTS-8 or ADAMTS-4; from tissue; host or cells: bovine articular cartilage
Procedure: Detailed procedures for Western blot analyses are set forth below. Bovine articular cartilage aggrecan was incubated with purified ADAMTS-8 or ADAMTS-4 for 16 h at 37° C. in 50 mM Tris, pH 7.3, containing 100 mM NaCl and 5 mM CaCl2. Digestion products were deglycosylated by incubation for 2 h at 37° C. in the presence of chondroitinase ABC (Seikagaku America, Falmouth, Mass.; 1 mU/μg aggrecan), keratanase (Seikagaku; 1 mU/μg aggrecan) and keratanase II (Seikagaku; 0.02 mU/μg aggrecan). Digestion products were separated on 4-12% Bis-Tris NuPAGE SDS PAGE gels (Invitrogen, Carlsbad, Calif.) and then electrophoretically transferred to nitrocellulose. Immunoreactive products were detected by Western blotting with MAb AGG-C1 (0.04 μg/ml) or MAb BC-3 (Caterson, et al., supra). Alkaline-phosphatase-conjugated secondary goat anti-mouse IgG (Promega Corp., Madison, Wis.; 1:7500) was subsequently incubated with the membranes, and NBT/BCIP substrate (Promega) was used to visualize immunoreactive bands. All antibody incubations were performed for 1 h at room temperature, and the immunoblots were incubated with the substrate for 5-15 min at room temperature to achieve optimum color development.

T2 sequence (P13608 17-2364): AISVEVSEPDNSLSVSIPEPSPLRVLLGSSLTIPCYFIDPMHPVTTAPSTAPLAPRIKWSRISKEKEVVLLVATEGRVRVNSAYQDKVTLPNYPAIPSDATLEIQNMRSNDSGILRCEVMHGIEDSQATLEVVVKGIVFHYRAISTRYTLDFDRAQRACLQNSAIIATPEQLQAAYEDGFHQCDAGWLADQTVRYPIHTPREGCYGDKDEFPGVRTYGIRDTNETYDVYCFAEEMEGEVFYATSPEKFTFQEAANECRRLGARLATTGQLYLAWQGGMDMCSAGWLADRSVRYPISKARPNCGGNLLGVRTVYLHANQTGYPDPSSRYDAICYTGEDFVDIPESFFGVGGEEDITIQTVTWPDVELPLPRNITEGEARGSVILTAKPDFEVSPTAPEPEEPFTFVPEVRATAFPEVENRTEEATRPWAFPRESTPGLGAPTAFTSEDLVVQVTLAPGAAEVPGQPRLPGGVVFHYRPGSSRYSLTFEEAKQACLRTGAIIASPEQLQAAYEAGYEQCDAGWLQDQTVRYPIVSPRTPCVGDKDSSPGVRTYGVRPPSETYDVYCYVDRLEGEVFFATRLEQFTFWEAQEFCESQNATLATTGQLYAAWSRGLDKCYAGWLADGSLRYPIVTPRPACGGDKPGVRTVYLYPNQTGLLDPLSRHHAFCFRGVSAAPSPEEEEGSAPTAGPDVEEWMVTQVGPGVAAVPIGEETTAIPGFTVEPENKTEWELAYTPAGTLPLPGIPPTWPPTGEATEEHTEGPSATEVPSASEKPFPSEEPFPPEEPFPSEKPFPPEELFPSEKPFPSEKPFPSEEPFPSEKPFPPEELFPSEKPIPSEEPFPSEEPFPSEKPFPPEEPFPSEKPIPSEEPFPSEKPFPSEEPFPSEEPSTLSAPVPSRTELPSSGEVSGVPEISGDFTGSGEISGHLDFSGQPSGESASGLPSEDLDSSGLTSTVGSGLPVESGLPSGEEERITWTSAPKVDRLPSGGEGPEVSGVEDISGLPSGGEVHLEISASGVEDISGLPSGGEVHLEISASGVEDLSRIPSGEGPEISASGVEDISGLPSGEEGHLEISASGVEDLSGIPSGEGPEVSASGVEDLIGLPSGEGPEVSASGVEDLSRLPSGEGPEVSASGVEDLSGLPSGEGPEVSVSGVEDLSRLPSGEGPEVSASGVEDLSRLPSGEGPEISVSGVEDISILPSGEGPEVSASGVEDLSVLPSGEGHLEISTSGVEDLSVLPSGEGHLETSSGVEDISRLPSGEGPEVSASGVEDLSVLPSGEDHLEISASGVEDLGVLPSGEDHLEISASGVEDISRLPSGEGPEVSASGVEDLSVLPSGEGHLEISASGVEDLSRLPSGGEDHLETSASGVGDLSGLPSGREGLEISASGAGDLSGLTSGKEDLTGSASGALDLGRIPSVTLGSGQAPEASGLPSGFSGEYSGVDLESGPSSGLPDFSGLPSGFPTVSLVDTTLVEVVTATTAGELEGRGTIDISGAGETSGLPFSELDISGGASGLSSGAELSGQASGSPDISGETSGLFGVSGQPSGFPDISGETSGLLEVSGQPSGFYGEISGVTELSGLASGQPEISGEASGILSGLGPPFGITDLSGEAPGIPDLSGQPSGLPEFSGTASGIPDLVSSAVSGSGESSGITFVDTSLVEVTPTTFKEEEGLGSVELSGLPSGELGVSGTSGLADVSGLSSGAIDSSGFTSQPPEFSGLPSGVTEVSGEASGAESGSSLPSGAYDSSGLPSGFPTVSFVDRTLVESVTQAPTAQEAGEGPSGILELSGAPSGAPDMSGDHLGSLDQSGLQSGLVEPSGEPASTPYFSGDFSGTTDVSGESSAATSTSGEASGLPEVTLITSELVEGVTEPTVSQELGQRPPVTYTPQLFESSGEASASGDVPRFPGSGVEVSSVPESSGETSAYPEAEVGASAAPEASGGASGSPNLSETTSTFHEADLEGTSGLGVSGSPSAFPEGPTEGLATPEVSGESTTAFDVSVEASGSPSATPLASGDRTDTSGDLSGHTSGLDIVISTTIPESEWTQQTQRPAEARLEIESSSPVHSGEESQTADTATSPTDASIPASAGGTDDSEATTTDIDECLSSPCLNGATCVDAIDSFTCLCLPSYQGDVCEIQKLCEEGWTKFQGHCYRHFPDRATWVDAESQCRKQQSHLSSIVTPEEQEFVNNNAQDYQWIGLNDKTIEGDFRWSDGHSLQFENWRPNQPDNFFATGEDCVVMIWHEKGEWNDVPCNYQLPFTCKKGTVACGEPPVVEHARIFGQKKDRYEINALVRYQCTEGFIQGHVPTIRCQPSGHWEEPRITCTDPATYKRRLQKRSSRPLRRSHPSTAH
Chain of bovine aggrecan (P13608 17-2364): as above

Molecule	amount of enzyme required to generate aggrecan cleavage product giving 45% inhibition in the competitive inhibition ELISA (bovine aggrecan; FIG. 7 standard curve)	amount of enzyme required to generate 45% inhibition in the competitive inhibition ELISA (bovine aggrecan) [pM]	proteolytic activity by α2-macroglobulin assay (α-2 macroglobulin)	cleavage site specificity of aggrecanase activity ([1]; BC-3 and AGG-C1 Western blots)	MAb BC-3 immunoreactive bands (cleavage at Glu373-Ala374) ([1]; MAb BC-3 Western blot, 16 h at 37° C.)	efficiency of cleaving cartilage aggrecan at Glu373-Ala374 compared with ADAMTS-4 ([1]; same Western blots, FIGS. 6A-6C)	activity on aggrecan substrate compared with full-length recombinant ADAMTS-8 ([1]; AGG-C1 Western blotting)
B1	approximately 1 ng	0.0135	–	–	–	–	–
B2	–	46.6 ± 4.8	verified	specific for the Glu^373-Ala^374 site	increased in intensity with increasing amounts	less efficient than ADAMTS4	–
B3	–	–	active	–	–	–	no more active than full-length recombinant ADAMTS-8
